In data set [1] the target is T1, soluble ECD of human B7-H3 (Homo sapiens, UniProt Q5ZPR3).
T1 construct: His tag (6xHis) (C); made in house
T1 sequence (Q5ZPR3 with tags, fused parts or gaps): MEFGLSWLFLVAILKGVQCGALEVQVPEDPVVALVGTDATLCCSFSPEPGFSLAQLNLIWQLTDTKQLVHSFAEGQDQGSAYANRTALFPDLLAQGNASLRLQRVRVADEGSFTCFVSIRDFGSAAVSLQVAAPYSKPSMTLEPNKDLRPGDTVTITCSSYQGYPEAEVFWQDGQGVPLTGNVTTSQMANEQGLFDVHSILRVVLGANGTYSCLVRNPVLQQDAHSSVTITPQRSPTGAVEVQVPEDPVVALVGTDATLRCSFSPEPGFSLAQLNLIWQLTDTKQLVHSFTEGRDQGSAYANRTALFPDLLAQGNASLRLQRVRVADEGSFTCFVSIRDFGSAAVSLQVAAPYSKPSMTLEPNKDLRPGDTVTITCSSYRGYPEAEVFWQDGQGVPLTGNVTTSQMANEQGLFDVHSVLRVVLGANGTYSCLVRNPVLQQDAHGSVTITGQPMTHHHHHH
Briefly: Biacore T200 SPR binding kinetics, mAb capture. Particulars: Biacore T200, Fc capture of mAb, B7-H3 ECD as analyte, 1:1 binding model. As to the method: The binding affinity of the purified anti-B7-H3 monoclonal antibodies was determined by surface […]. […] The binding kinetics were derived from SPR measurements using a Biacore T200 instrument and a mAb capture approach (as described in the materials and methods below).
Biacore T200 SPR instruments were used to measure the binding kinetics of human B7-H3 (analyte) binding to various mAbs (ligands). The assay format was Fc-based capture via immobilized anti-mouse (Fc) (Pierce 31170) or immobilized anti-human (Fc) (Pierce 31125). A standard amine coupling protocol was employed to immobilize the capture reagents via primary amines to the carboxy-methyl (CM) dextran surface of CM5 sensorchips (Biacore); capture antibodies were coupled to a level of approximately 5000 RU. For binding kinetic measurements the assay buffer was HBS-EP+ (Biacore): 10 mM Hepes, pH7.4, 150 mM NaCl, 3 mM EDTA, 0.05% polysorbate 20. During the assay, all measurements were referenced against the capture surface alone. Each assay cycle consisted of the following steps: 1) Capture of ligand to approximately 50 RU; 2) Analyte injection over both reference and test surface, 240 μL at 80 μL/min, after which the dissociation was monitored for 900 seconds at 80 μL/min; 3) Regeneration of capture surface with low pH glycine. For kinetic determinations analyte injections were 3-point, 9-fold dilution series of 900 nM, 100 nM and 11.11 nM, buffer only injections were included for secondary referencing. Data were processed and fit to a 1:1 binding model using Biacore T200 Evaluation Software to determine the binding kinetic rate constants, ka (on-rate) and kd (off-rate), and the equilibrium dissociation constant (affinity, KD).
(In general: Surface plasmon resonance follows binding to a sensor surface in real time, without labels.)

Data set [2] has as its system soluble ECD of cyno B7-H3. Briefly: Biacore T200 SPR binding kinetics, mAb capture. The arrangement: species or system cynomolgus monkey. Particulars: Biacore T200, Fc capture of mAb, B7-H3 ECD as analyte, 1:1 binding model.
A further data set addresses T2, B7-H3 (Homo sapiens, UniProt Q5ZPR3).
T2 construct: His tag (6xHis) (C); made in house
T2 sequence (Q5ZPR3 with tags, fused parts or gaps): T1 sequence (Q5ZPR3 with tags, fused parts or gaps)
Put plainly: Pair-wise SPR binding assay for epitope grouping. As to conditions: simultaneous binding assay, 12° C. An excerpt: Pair-wise binding assays performed on Biacore T200 SPR instruments were used to determine the relative epitope grouping for the murine anti-B7-H3 mAbs as described in the methods below. […] Epitope groups are represented as individual ovals, some of which overlap with each other. Antibodies in different epitope groups can bind to B7-H3 simultaneously and likely bind to different epitopes while antibodies within a given epitope group cannot bind to B7-H3 simultaneously and likely bind to overlapping epitopes. The grouping information was derived from a simultaneous binding assay as described in materials and methods. Ab3, Ab4, Ab5, Abl 1, Ab12, and Ab8 groupings were ambiguous.
Pair-wise binding assays performed on Biacore T200 SPR instruments were used to determine the relative epitope grouping for a series of anti-B7-H3 mAbs. The assay format was Fc-based capture via immobilized anti-mouse(Fc) (Pierce 31170) or immobilized anti-human (Fc) (Pierce 31125). A standard amine coupling protocol was employed to immobilize the capture reagents via primary amines to the carboxy-methyl (CM) dextran surface of CM5 sensorchips (Biacore); capture antibodies were coupled to a level of approximately 2000 RU. Epitope grouping measurements were done at 12° C. (low temperature allows for grouping information on fast off-rate mAbs), the assay buffer was HBS-EP+(Biacore): 10 mM Hepes, pH7.4, 150 mM NaCl, 3 mM EDTA, 0.05% polysorbate 20. Each assay cycle consisted of the following steps in a four flowcell system: 1) separate test mAbs were captured in flowcells 2, 3 & 4 (flowcell 1 was reference, no test mAb); 2) all 4 flowcells were then blocked by injection with isotype control mAb or isotype mAb cocktail at 50 μg/mL; 3) all 4 flowcells were then injected with antigen or buffer only (buffer only is for double referencing, done for each mAb pair individually); 4) all 4 flowcells were then injected with 2nd test mAb at 10 μg/mL; 5) all 4 flowcells were then regenerated with glycine, pH1.5. The assay was done for each test mAb pair in reciprocal orientations. Simultaneous binding was evaluated examining the ratio of the 2nd test mAb response to the Ag response (RUmAb2/RUAg); if this ratio was equal to or greater than 0.2 the interaction was scored as a simultaneous binder. From this pair-wise binding assay data a “venn” style diagram was constructed manually to depict relative epitope groupings.

Another data set relates to HCC38 cell line. Put plainly: Cell cytotoxicity of ADCs in HCC38 cell line. The class given is cell-based. As to conditions: Table 14; CZ conjugates. A digest of the protocol: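 Humanized anti-B7-H3 antibody (chAb18) variants conjugated to the Bcl-xL inhibitor synthon CZ and tested as ADCs for cytotoxicity in HCC38 cells.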
Data set [3] has as its system HCC38 (breast cancer) cells. Put plainly: In vitro cell viability assay (CellTiter-Glo), HCC38. It counts as cell-based, human. Particulars: ADC with synthon CZ; HCC38 breast cancer cells; viability after 5 days; read-out: Cytotoxicity (HCC38 cell line IC50nM). On the procedure:
(§1) Nine anti-B7-H3 chimeric antibodies were conjugated to the Bcl-xL inhibiting (Bcl-xLi) synthon CZ (Example 2.1) using conjugation Method A described below. The resulting ADCs (anti-B7-H3 antibodies conjugated to synthon CZ) were tested for binding to cell surface human B7-H3 by FACS (as described in Example 6) and for cell cytotoxicity in cell lines expressing B7-H3. […] Table 6 provides cell surface binding and cytotoxicity activity of anti-B7-H3 chimera ADCs against breast cancer cell HCC38 expressing human B7-H3.
The tumor cell lines HCC38 (breast cancer), NCI-H1650 (NSCLC) and NCI-H847 (small cell lung cancer cell line) were obtained from American Type Culture Collection (ATCC). Cells were grown in 96-well culture plates using recommended growth media overnight at a density of 5×10^3 (HCC38) or 20×10^3 (NCI-H847) or 40×10^3 (NCI-H1650) per well. The following day, treatments were added in fresh media to triplicate wells. Cellular viability was determined 5 days later using the CellTiter-Glo Luminescent Cell Viability Assay kit (Promega), as directed in the manufacturer's protocol. Cell viability was assessed as percentage of control untreated cells.
(ATP-based viability assays read luminescence as a measure of living cells.)

Data set [4] is described as follows: Size exclusion chromatography, % aggregate of ADC. The class given is physicochemical. As to conditions: ADC with synthon CZ, conjugation Method A. As to the method: The DAR and percentage aggregation of ADCs synthesized were determined by LC-MS and size exclusion chromatography (SEC), respectively.
Size exclusion chromatography was performed using a Shodex KW802.5 column in 0.2 M potassium phosphate pH 6.2 with 0.25 mM potassium chloride and 15% IPA at a flow rate of 0.75 ml/min. The peak area absorbance at 280 nm was determined for each of the high molecular weight and monomeric eluents by integration of the area under the curve. The % aggregate fraction of the conjugate sample was determined by dividing the peak area absorbance at 280 nm for the high molecular weight eluent by the sum of the peak area absorbances at […] of the high molecular weight and monomeric eluents multiplied by 100%.
In general terms: SEC sorts molecules by how far they enter the pores of the column.

Data set [5] is described as follows: Observation after conjugation to synthon (Method A). The class given is physicochemical. As to conditions: after conjugation to Bcl-xLi synthon CZ. On the procedure: as §1
A solution of Bond-Breaker™ tris(2-carboxyethyl)phosphine (TCEP) solution (10 mM, 0.017 mL) was added to a solution of antibody (10 mg/mL, 1 mL) preheated to 37° C. The reaction mixture was kept at 37° C. for 1 hour. The solution of reduced antibody was added to a solution of synthon (3.3 mM, 0.160 mL in DMSO) and gently mixed for 30 minutes. The reaction solution was loaded onto a desalting column (PD10, washed with Dulbecco's phosphate-buffered saline [DPBS] 3× before use), followed by DPBS (3 mL). The purified ADC solution was filtered through a 0.2 micron, low protein-binding 13 mm syringe-filter and stored at 4° C.

Another data set relates to NCI-H146 xenograft. Put plainly: NCI-H146 small cell lung cancer xenograft efficacy. It counts as in vivo, mouse. Particulars: NCI-H146 xenograft in SCID/bg mice; 10 mg/kg IP QDx1. On the procedure:
Antibody MSL109 (an IgG1 antibody that binds to cytomegalovirus (CMV) glycoprotein H) was used as a control, both as a naked antibody and as an ADC (conjugated to the same synthon (CZ) as the chAb3, chAb18, and chAb13 antibodies). MSL109 is an isotype matched non-targeting control. The methods of this xenograft assay are described below.
NCI-H146 cells, NCI-1650 cells, and EBC-1 cells were obtained from the American Type Culture Collection (ATCC, Manassas, Va.). The cells were cultured as monolayers in RPMI-1640 (NCI-H146, NCI-H1650) or MEM (EBC-1) culture media (Invitrogen, Carlsbad, Calif.) that was supplemented with 10% Fetal Bovine Serum (FBS, Hyclone, Logan, Utah). To generate xenografts, 5×10^6 viable cells were inoculated subcutaneously into the right flank of immune deficient female SCID/bg mice (Charles River Laboratories, Wilmington, Mass.) respectively. The injection volume was 0.2 mL and composed of a 1:1 mixture of S MEM and Matrigel (BD, Franklin Lakes, N.J.). Tumors were size matched at approximately 200 mm^3. Antibodies and conjugates were formulated in 0.9% sodium chloride for injection and injected intraperitoneally. […] Therapy began within 24 hours after size matching of the tumors. Mice weighed approximately 22 g at the onset of therapy. Tumor volume was estimated two to three times weekly. Measurements of the length (L) and width (W) of the tumor were taken via electronic caliper and the volume was calculated according to the following equation: V=L×W^2/2. Mice were euthanized when tumor volume reached 3,000 mm3 or skin ulcerations occurred. Eight mice were housed per cage. Food and water were available ad libitum. Mice were acclimated to the animal facilities for a period of at least one week prior to commencement of experiments. Animals were tested in the light phase of a 12-hour light: 12-hour dark schedule (lights on at 06:00 hours). As described above, human IgG control antibody (MSL109) was used as a negative control agent.
To refer to efficacy of therapeutic agents, parameters of amplitude (TGImax), durability (TGD) of therapeutic response are used. TGImax is the maximum tumor growth inhibition during the experiment. Tumor growth inhibition is calculated by 100*(1−Tv/Cv) where Tv and Cv are the mean tumor volumes of the treated and control groups, respectively. TGD or tumor growth delay is the extended time of a treated tumor needed to reach a volume of 1 cm^3 relative to the control group. TGD is calculated by 100*(Tt/Ct−1) where Tt and Ct are the median time periods to reach 1 cm^3 of the treated and control groups, respectively.

Sequence of soluble ECD of cyno B7-H3 (as listed by the source): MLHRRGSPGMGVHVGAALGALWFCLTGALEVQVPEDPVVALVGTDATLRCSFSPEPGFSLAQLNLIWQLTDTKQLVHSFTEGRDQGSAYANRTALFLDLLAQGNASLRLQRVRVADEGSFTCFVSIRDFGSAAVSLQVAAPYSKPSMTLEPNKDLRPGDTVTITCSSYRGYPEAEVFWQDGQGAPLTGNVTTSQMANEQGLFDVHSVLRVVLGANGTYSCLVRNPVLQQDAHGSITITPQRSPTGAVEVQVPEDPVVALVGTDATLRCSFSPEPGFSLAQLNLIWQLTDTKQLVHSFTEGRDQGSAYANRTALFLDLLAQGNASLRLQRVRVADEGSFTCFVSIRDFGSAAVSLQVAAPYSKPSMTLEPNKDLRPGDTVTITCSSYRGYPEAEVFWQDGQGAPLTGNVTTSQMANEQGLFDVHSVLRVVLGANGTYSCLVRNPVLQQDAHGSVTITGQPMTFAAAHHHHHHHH

B1: Ab4: murine anti-B7-H3 mAb (mouse hybridoma derived) (antibody, V domains shown)
VH: QVQLQQPGAELVKPGASVKLSCKASGYSFTSYWMHWVKQRPGQGLEWIGMIHPNSGSNNYNEKFKSKATLTVDKSSNTAYMQLSSLTSEDSAVYYCARRLGLHFDYWGQGTTLTVSS
VL: DIVMTQSQKFMSTPVGDRVSITCKASQNVGTAVAWYQQKPGQSPKLLIYSASNRYTGVPDRFTGSGSGTDFTLTISNMQSEDLADYFCQQYSSYPYTFGGGTKLEIK
On to B1, for which, in data set [1], the “huB7-H3 ka” value came to 690000 M⁻¹ s⁻¹ and the “huB7-H3 kd” value was 0.0011 s⁻¹. Besides, in data set [2], the “cynoB7-H3 ka” value was determined as 540000 M⁻¹ s⁻¹ and the “cynoB7-H3 kd” value was 0.00096 s⁻¹. The “relative human B7-H3 epitope grouping” value in the data set with B7-H3 is “ambiguous”.

B2: Ab3: murine anti-B7-H3 mAb (mouse hybridoma derived) (antibody, V domains shown)
VH: QVQLQQPGAELVKPGASVKLSCKASGYTFSSYWMHWVKQRPGQGLEWIGLIHPDSGSTNYNEMFKNKATLTVDRSSSTAYVQLSSLTSEDSAVYFCAGGGRLYFDYWGQGTTLTVSS
VL: DVVMTQTPLSLPVSLGDQASISCRSSQSLVHSNGDTYLRWYLQKPGQSPKLLIYKVSNRFSGVPDRFSGSGSGTDFTLKITRVEAEDLGVYFCSQSTHVPYTFGGGTKLEIK
With B2, in data set [1], the “huB7-H3 ka” value was found to be 520000 M⁻¹ s⁻¹ and the “huB7-H3 kd” value was 0.01 s⁻¹. In data set [2], the “cynoB7-H3 ka” value was found to be 380000 M⁻¹ s⁻¹ and the “cynoB7-H3 kd” value came to 0.01 s⁻¹. Moreover, the “relative human B7-H3 epitope grouping” value with B7-H3 is reported as “ambiguous”.

B3: chAb3-CZ (conjugate)
VH: B2 VH
VL: B2 VL
modifications: drug conjugate; Synthetic chAb3 VH amino acid sequence; Synthetic chAb3 VL amino acid sequence
Consider B3, for which, in the data set with HCC38 cell line, the IC50 amounted to 170 pM. For the same molecule, the IC50 in data set [3] is 0.17 nM. For the same molecule, in data set [4], the “% agg by SEC” value worked out at 6.3%. Also, in data set [5], the Conjugation observation entry is recorded as “Clear”. Also, in the data set on NCI-H146 xenograft, the “TGD (%)” value amounted to 109% and the “TGImax (%)” value was determined as 87%.

Source of the values: patent publication US10640563B2, “Anti-B7-H3 antibodies and antibody drug conjugates” (AbbVie Inc., priority 2016, dated 2020).
